Earlier results in publication PMC8305778.

Target: FcεRIα (Homo sapiens) (UniProt P12319)
Experiment: given as Ka

Sequence of UniProt P12319 (P12319 26-257): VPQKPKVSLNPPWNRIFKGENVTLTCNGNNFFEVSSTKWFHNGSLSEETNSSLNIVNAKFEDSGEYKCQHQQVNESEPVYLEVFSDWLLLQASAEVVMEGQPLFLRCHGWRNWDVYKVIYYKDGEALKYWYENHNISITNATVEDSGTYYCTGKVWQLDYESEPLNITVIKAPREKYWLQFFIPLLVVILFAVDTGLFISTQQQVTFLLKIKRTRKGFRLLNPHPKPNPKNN

Kd: 0.1 nM
Substance: IgE Fc (from UniProt P01854)
